# Data from patent US20180355338A1.
# Assays:
# [1] = biological target: TY-145 protease variant K146F, S173P, S175P, F180Y (Bacillus sp. TY-145); assay: Ki fitted from Suc-AAPF-pNA activity; Model B detergent; ratio against m3 (without K146F)
# [2] = biological target: TY-145 protease variant S27K, S173P, G174K, S175P, F180Y, L184Y, Q198E, N199K, T297P (Bacillus sp. TY-145); assay: Ki fitted from Suc-AAPF-pNA activity; Model B detergent; ratio against m8 (without L184Y)
# [3] = biological target: TY-145 protease variant S27K, S171N, S173P, G174R, S175P, F180Y, Q198E, N199K, R224G, T297P (Bacillus sp. TY-145); assay: Ki fitted from Suc-AAPF-pNA activity; Model B detergent; ratio against m11 (without R224G)
# [4] = biological target: TY-145 protease variant S173P, S175P, F180Y, R224D (Bacillus sp. TY-145); assay: Ki fitted from Suc-AAPF-pNA activity; Model B detergent; ratio against m3 (without R224D)
# [5] = biological target: TY-145 protease variant G182A (Bacillus sp. TY-145); assay: Ki fitted from Suc-AAPF-pNA activity; Model B detergent; relative to TY145 backbone
# [6] = biological target: TY-145 protease variant Q70N (Bacillus sp. TY-145); assay: as above
# [7] = biological target: TY-145 protease variant S111R (Bacillus sp. TY-145); assay: as above
# [8] = biological target: TY-145 protease variant Y240R (Bacillus sp. TY-145); assay: as above
# [9] = biological target: TY-145 protease variant I150S (Bacillus sp. TY-145); assay: as above
# [10] = biological target: TY-145 protease variant S114A (Bacillus sp. TY-145); assay: as above
# [11] = biological target: TY-145 protease variant L184F (Bacillus sp. TY-145); assay: as above
# [12] = biological target: TY-145 protease variant L184Y (Bacillus sp. TY-145); assay: as above
# [13] = biological target: TY-145 protease variant R224G (Bacillus sp. TY-145); assay: as above
# [14] = biological target: TY-145 protease variant I150N (Bacillus sp. TY-145); assay: as above
# [15] = biological target: TY-145 protease variant Q70A (Bacillus sp. TY-145); assay: as above
# [16] = biological target: TY-145 protease variant Q70F (Bacillus sp. TY-145); assay: as above
# [17] = biological target: TY-145 protease variant I150N, S173P, S175P, F180Y (Bacillus sp. TY-145); assay: Ki fitted from Suc-AAPF-pNA activity; Tris buffer pH 8; ratio against m3 (without I150N)
# [18] = biological target: TY-145 protease variant S173P, S175P, F180Y, L184F (Bacillus sp. TY-145); assay: Ki fitted from Suc-AAPF-pNA activity; Model B detergent; ratio against m3 (without L184F); second row of the same variant
# [19] = biological target: TY-145 protease variant I150A, S173P, S175P, F180Y (Bacillus sp. TY-145); assay: Ki fitted from Suc-AAPF-pNA activity; Model B detergent; ratio against m3 (without I150A)
# [20] = biological target: TY-145 protease variant S27K, S171N, S173P, G174R, S175P, F180Y, L184F, Q198E, T297P (Bacillus sp. TY-145); assay: Ki fitted from Suc-AAPF-pNA activity; Model B detergent; ratio against m4 (without L184F)
# [21] = biological target: TY-145 protease variant S27K, S173P, G174K, S175P, F180Y, L184F, Q198E, N199R, T297P (Bacillus sp. TY-145); assay: Ki fitted from Suc-AAPF-pNA activity; Model B detergent; ratio against m9 (without L184F)
# [22] = biological target: TY-145 protease variant K146N, S173P, S175P, F180Y (Bacillus sp. TY-145); assay: Ki fitted from Suc-AAPF-pNA activity; Tris buffer pH 8; ratio against m3 (without K146N)
# [23] = biological target: TY-145 protease variant S27K, I121V, S171N, S173P, G174R, S175P, F180Y, L184F, Q198E, T297P (Bacillus sp. TY-145); assay: Ki fitted from Suc-AAPF-pNA activity; Model B detergent; ratio against m6 (without L184F)
# [24] = biological target: TY-145 protease variant S173P, S175P, I178F, F180Y (Bacillus sp. TY-145); assay: Ki fitted from Suc-AAPF-pNA activity; Model B detergent; ratio against m3 (without I178F); second row of the same variant
# [25] = biological target: TY-145 protease variant S27K, Q70N, G107N, I121V, E127Q, S173P, S175P, F180Y, L184F, Q198E, T297P (Bacillus sp. TY-145); assay: Ki fitted from Suc-AAPF-pNA activity; Model B detergent; ratio against m7 (without L184F)
# [26] = biological target: TY-145 protease (mature, SEQ ID NO: 3) (Bacillus sp. TY-145); assay: Ki fitted from Suc-AAPF-pNA activity; Model B detergent; the reference itself (TY145 backbone)
substance,measurement,setting,value
"Z-Gly-Ala-NHCH(CH2C6H4pOH)C(OH)(SO3Na)-H, wherein Z is benzyloxycarbonyl (peptide)",relative Ki mutation,[1],0.25
same,relative Ki mutation,[2],0.21
same,relative Ki mutation,[3],0.74
same,relative Ki mutation,[4],0.36
same,"IF (binding constant improvement factor, relative Ki)",[5],0.54
same,"IF (binding constant improvement factor, relative Ki)",[6],0.3
same,"IF (binding constant improvement factor, relative Ki)",[7],0.9
same,"IF (binding constant improvement factor, relative Ki)",[8],0.84
same,"IF (binding constant improvement factor, relative Ki)",[9],0.2
same,"IF (binding constant improvement factor, relative Ki)",[10],0.47
same,"IF (binding constant improvement factor, relative Ki)",[11],0.44
same,"IF (binding constant improvement factor, relative Ki)",[12],0.22
same,"IF (binding constant improvement factor, relative Ki)",[13],0.6
same,"IF (binding constant improvement factor, relative Ki)",[14],0.27
same,"IF (binding constant improvement factor, relative Ki)",[15],0.39
same,"IF (binding constant improvement factor, relative Ki)",[16],0.12
same,relative Ki mutation,[17],0.21
same,relative Ki mutation,[18],0.27
same,relative Ki mutation,[19],0.5
same,relative Ki mutation,[20],0.18
same,relative Ki mutation,[21],0.22
same,relative Ki mutation,[22],0.91
same,relative Ki mutation,[23],0.3
same,relative Ki mutation,[24],0.49
same,relative Ki mutation,[25],0.37
same,"IF (binding constant improvement factor, relative Ki)",[26],1
